The values that follow are results of earlier work, collected in patent publication US6872537B1, “Assays for the detection of microtubule depolymerization inhibitors” (Regents of the University of California, priority 1998, dated 2005).

The conditions of the data set: literature values for comparison.

Take “p97: AAA ATPase cited for comparison [reference compound]”: the “ATPase activity of other AAA family members” value is 1 ATP/sec.
